B1: CCP domains 19-20 of human Factor H (domain or fragment)
chain: GKCGPPPPIDNGDITSFPLSVYAPASSVEYQCQNLYQLEGNKRITCRNGQWSEPPKCLHPCVISREIMENYNIALRWTAKQKLYSRTGESVEFVCKRGYRLSSRSHTLRTTCWDGKLEYPTCAKR
B2: C-terminal domain of the Staphylococcus aureus immune evasion protein Efb (domain or fragment)
chain: TDATIKKEQKLIQAQNLVREFEKTHTVSAHRKAQKAVNLVSFEYKVKKMVLQERIDNVLKQGLV

Tests used:
[1] = target: T1, Human C3b, site-specifically biotinylated at its thioester cysteine (human, UniProt P01024 23-667; P01024 749-1663); experiment: SPR
[2] = target: T1, Human C3b, site-specifically …; experiment: SPR; remark: listed apart in the source

T1 sequence (P01024 23-667, chain 1 of 2): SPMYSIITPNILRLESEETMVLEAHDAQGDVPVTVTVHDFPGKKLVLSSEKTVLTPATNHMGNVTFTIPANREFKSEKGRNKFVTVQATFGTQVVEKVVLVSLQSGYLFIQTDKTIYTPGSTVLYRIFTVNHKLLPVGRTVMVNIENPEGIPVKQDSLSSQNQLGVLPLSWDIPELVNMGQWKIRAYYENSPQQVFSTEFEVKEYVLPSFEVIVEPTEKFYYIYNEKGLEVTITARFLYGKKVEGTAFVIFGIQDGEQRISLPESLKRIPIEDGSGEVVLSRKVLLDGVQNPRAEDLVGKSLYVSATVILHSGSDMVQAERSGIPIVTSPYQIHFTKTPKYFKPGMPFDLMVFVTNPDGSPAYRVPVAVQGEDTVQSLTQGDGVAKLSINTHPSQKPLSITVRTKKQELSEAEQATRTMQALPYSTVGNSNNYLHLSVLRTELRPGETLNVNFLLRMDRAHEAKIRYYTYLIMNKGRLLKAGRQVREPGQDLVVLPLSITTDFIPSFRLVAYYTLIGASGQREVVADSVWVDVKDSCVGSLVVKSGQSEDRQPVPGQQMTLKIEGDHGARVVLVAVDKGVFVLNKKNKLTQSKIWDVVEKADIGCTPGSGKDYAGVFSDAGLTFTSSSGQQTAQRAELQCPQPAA
T1 sequence (P01024 749-1663, chain 2 of 2): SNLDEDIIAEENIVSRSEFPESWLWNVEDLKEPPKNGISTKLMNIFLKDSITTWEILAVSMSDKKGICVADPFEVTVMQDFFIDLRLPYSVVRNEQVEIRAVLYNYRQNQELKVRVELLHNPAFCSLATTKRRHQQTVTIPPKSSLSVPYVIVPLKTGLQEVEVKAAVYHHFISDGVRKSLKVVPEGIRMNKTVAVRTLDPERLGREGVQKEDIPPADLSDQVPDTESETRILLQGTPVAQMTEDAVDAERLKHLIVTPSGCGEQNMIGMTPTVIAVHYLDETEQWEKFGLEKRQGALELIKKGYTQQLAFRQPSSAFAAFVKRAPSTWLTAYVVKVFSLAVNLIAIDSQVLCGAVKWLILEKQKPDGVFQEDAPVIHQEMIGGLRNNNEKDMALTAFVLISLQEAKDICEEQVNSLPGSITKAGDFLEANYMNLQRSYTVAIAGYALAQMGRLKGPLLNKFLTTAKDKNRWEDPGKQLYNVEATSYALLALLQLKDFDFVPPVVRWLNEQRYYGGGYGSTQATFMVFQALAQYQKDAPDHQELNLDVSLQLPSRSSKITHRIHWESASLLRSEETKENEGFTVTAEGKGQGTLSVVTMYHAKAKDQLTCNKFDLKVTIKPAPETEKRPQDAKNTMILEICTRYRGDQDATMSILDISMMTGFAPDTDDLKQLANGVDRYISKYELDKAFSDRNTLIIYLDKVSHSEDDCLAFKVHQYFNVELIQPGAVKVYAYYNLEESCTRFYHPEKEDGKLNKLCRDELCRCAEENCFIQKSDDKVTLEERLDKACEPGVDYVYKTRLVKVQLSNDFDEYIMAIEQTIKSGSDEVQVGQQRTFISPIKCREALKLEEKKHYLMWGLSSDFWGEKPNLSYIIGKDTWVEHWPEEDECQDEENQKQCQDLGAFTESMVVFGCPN

Row | Binder | binding result [1] | Kd [2] [nM] | half-life of the complex [2] [h] | koff [2] [s⁻¹]
1 | B1 | binds |  |  | 
2 | B2 |  | 0.11 | ~1 | 0.000187

— article PMC9842190 (Seminars in immunology, 2022)
